Here are results for 5 molecules from patent US20230406885A1, “CYCLIC PEPTIDES FOR TRAPPING INTERLEUKIN-1 BETA” (MERCK SHARP & DOHME LLC, priority 2022, published 2023).

*1 amine or outer side, *2 acyl side, *3 side chain or, on linkers, in order; H or OH if unused. [ ]: non-standard residue; d: D form. TyrEtNAc = L-tyrosine O-ethyl acetamide, (S)-3-(4-(2-acetamidoethoxy)phenyl)-2-aminopropanoic acid, CC(=O)NCCOc1ccc(C[C@H](N[*:1])C(=O)[*:2])cc1; AbuMph = (S)-2-amino-4-morpholinobutanoic acid, O=C([C@H](CCN1CCOCC1)N[*:1])[*:2]; Pro(trans-4-NH2) = O=C([C@@H]1C[C@@H](N[*:3])CN1[*:1])[*:2]; Trp(βS-Me,4-F) = C[C@@H](c1c[nH]c2cccc(F)c12)[C@H](N)C(=O)O; Bip(4'-COOH) = N[C@@H](Cc1ccc(-c2ccc(C(=O)O)cc2)cc1)C(=O)O; Phe(4-COOH) = N[C@@H](Cc1ccc(C(=O)O)cc1)C(=O)O; h3Pal(5-CN) = N#Cc1cncc(CC[C@H](N)C(=O)O)c1; hTyr = N[C@@H](CCc1ccc(O)cc1)C(=O)O; dDab = NCC[C@@H](N)C(=O)O; dNMeA = CN[C@H](C)C(=O)O

To fix the notation:
B1: SEQ ID NO: 159 (Example No. 159) (peptide)
peptide: cyclo([TyrEtNAc]W[Phe(4-COOH)]G[Pro(trans-4-NH2)][Trp(βS-Me,4-F)]D[dNMeA]G[Bip(4'-COOH)]KL[dA][hTyr])
SMILES: CC(=O)NCCOc1ccc(C[C@@H]2NC(=O)[C@H](CCc3ccc(O)cc3)NC(=O)[C@@H](C)NC(=O)[C@H](CC(C)C)NC(=O)[C@H](CCCCN)NC(=O)[C@H](Cc3ccc(-c4ccc(C(=O)O)cc4)cc3)NC(=O)CNC(=O)[C@@H](C)N(C)C(=O)[C@H](CC(=O)O)NC(=O)[C@H]([C@@H](C)c3c[nH]c4cccc(F)c34)NC(=O)[C@@H]3C[C@@H](N)CN3C(=O)CNC(=O)[C@H](Cc3ccc(C(=O)O)cc3)NC(=O)[C@H](Cc3c[nH]c4ccccc34)NC2=O)cc1
B2: SEQ ID NO: 162 (Example No. 162) (peptide)
peptide: cyclo([TyrEtNAc]W[Phe(4-COOH)]G[Pro(trans-4-NH2)][Trp(βS-Me,4-F)]D[dNMeA]G[Bip(4'-COOH)]W[AbuMph][dA]G)
SMILES: CC(=O)NCCOc1ccc(C[C@@H]2NC(=O)CNC(=O)[C@@H](C)NC(=O)[C@H](CCN3CCOCC3)NC(=O)[C@H](Cc3c[nH]c4ccccc34)NC(=O)[C@H](Cc3ccc(-c4ccc(C(=O)O)cc4)cc3)NC(=O)CNC(=O)[C@@H](C)N(C)C(=O)[C@H](CC(=O)O)NC(=O)[C@H]([C@@H](C)c3c[nH]c4cccc(F)c34)NC(=O)[C@@H]3C[C@@H](N)CN3C(=O)CNC(=O)[C@H](Cc3ccc(C(=O)O)cc3)NC(=O)[C@H](Cc3c[nH]c4ccccc34)NC2=O)cc1
B3: SEQ ID NO: 161 (Example No. 161) (peptide)
peptide: cyclo([TyrEtNAc]W[Phe(4-COOH)]G[Pro(trans-4-NH2)][Trp(βS-Me,4-F)]D[dNMeA]G[Bip(4'-COOH)]KL[dS][hTyr])
SMILES: CC(=O)NCCOc1ccc(C[C@@H]2NC(=O)[C@H](CCc3ccc(O)cc3)NC(=O)[C@@H](CO)NC(=O)[C@H](CC(C)C)NC(=O)[C@H](CCCCN)NC(=O)[C@H](Cc3ccc(-c4ccc(C(=O)O)cc4)cc3)NC(=O)CNC(=O)[C@@H](C)N(C)C(=O)[C@H](CC(=O)O)NC(=O)[C@H]([C@@H](C)c3c[nH]c4cccc(F)c34)NC(=O)[C@@H]3C[C@@H](N)CN3C(=O)CNC(=O)[C@H](Cc3ccc(C(=O)O)cc3)NC(=O)[C@H](Cc3c[nH]c4ccccc34)NC2=O)cc1
B4: SEQ ID NO: 160 (Example No. 160) (peptide)
peptide: cyclo([TyrEtNAc]W[Phe(4-COOH)]G[Pro(trans-4-NH2)][Trp(βS-Me,4-F)]D[dNMeA]G[Bip(4'-COOH)]KL[dDab][hTyr])
SMILES: CC(=O)NCCOc1ccc(C[C@@H]2NC(=O)[C@H](CCc3ccc(O)cc3)NC(=O)[C@@H](CCN)NC(=O)[C@H](CC(C)C)NC(=O)[C@H](CCCCN)NC(=O)[C@H](Cc3ccc(-c4ccc(C(=O)O)cc4)cc3)NC(=O)CNC(=O)[C@@H](C)N(C)C(=O)[C@H](CC(=O)O)NC(=O)[C@H]([C@@H](C)c3c[nH]c4cccc(F)c34)NC(=O)[C@@H]3C[C@@H](N)CN3C(=O)CNC(=O)[C@H](Cc3ccc(C(=O)O)cc3)NC(=O)[C@H](Cc3c[nH]c4ccccc34)NC2=O)cc1
B5: SEQ ID NO: 158 (Example No. 158) (peptide)
peptide: cyclo([TyrEtNAc]W[Phe(4-COOH)]G[Pro(trans-4-NH2)][Trp(βS-Me,4-F)]D[dNMeA]G[Bip(4'-COOH)]KL[dA][h3Pal(5-CN)])
SMILES: CC(=O)NCCOc1ccc(C[C@@H]2NC(=O)[C@H](CCc3cncc(C#N)c3)NC(=O)[C@@H](C)NC(=O)[C@H](CC(C)C)NC(=O)[C@H](CCCCN)NC(=O)[C@H](Cc3ccc(-c4ccc(C(=O)O)cc4)cc3)NC(=O)CNC(=O)[C@@H](C)N(C)C(=O)[C@H](CC(=O)O)NC(=O)[C@H]([C@@H](C)c3c[nH]c4cccc(F)c34)NC(=O)[C@@H]3C[C@@H](N)CN3C(=O)CNC(=O)[C@H](Cc3ccc(C(=O)O)cc3)NC(=O)[C@H](Cc3c[nH]c4ccccc34)NC2=O)cc1

The target in the assay is Recombinant human IL-1β (BioLegend 579404) (human, UniProt P01584 117-269). The assay can be described thus: cell-based or functional assay.
In the case of B1, the “MRC5 IC50” value was 0.118 nM. On to B2, for which the “MRC5 IC50” value was determined as 0.749 nM. Turning to B3, the “MRC5 IC50” value came out at 0.483 nM. The same measure for B4: 0.522 nM; for B5: 0.0257 nM.
